In US20260125454A1 (SHANGHAI JUNSHI BIOSCIENCES, published 2026):
Changes are numbered by the printed parent chain.

T1: Biotin-huCGRPaSA (human, not fully specified; biotin (position not given))
T1 construct: exact construct ('aSA') not explained; also called Biotin CGRPaSA; full-length (1-37) CGRP
T1 peptide: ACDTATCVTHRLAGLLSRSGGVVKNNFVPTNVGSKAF

B1: hu71 (antibody, V domains shown)
VH: QVQLVQSGSELKKPGASVKVSCKASGYTFTDFNMHWVRQAPGQGLEWMGYIYPYNGDVVYNQNFTNRFVLSVDSSSSTAYLQISSLKAEDTAVYYCAREGLGGYWGQGTLVTVSS
VL: EIVLTQSPATLSLSPGERATLSCKASQNIDFDGYAYMNWYQHKPGQAPRVLIYSVFNLESGIPARFSGSGSGTDFTLTISSLEPEDFAVYYCQQSHEVPYTFGQGTKLEIK
notes: 1F5 HC-4/1F5 LC1-2
B2: hu131 (antibody, V domains shown)
VH: QVQLVQSGAEVKKPGASVKVSCKASGYTFTDYNMHWVRQAPGQGLEWMGNIYPYNAGTVYNQKFNNRVTLTVDTSSSTAYMELSRLRSDDTAVYYCAREGLGGYWGQGTLVTVSS
VL: DIVLTQSPASLAVSPGQRATITCKASQNIDYDGYAYLNWYQQKPGQPPKVLIYSVFNLESGVPARFSGSGSGTDFTLTINPVEANDTANYYCQQSNEFPYTFGQGTKLEIK
notes: 2B8 HC1-3/1A2 LC2-1
B3: hu145 (antibody, V domains shown)
VH: B2 VH with A24T, G44R, N50Y, Y52S, A56G, V59A, N65K, N66F, R85S, D89E
VL: B2 VL with N85D
notes: 3E5 HC-1/1A2 LC2-2
B4: hu37 (antibody, V domains shown)
VH: QVQLVQSGAEVKKPGASVKVSCKASGYTFIDFNMHWVRQAPGQRLEWMGYIYPYNGDVVYNQNFTNRVTLTVDTSSSTAYMELSSLRSEDTAVYYCAREGLGGYWGQGTLVTVSS
VL: DIVLTQSPDSLAVSLGERATINCKASQNIDYDGYTYLNWYQQKPGQPPKVLIYSIFNLESGVPDRFSGSGSGTDFTLTISSLQAEDVAVYYCQQSNEVPYTFGQGTKLEIK
notes: 1F5 HC-1/3E5 LC-1
B5: hu90 (antibody, V domains shown)
VH: B4 VH with G56A, N63D
VL: B4 VL with D32G, T35S, L37M, I55V, V98A
notes: 1F5 HC-5/3H10 LC2-1
B6: hu45 (antibody, V domains shown)
VH: B4 VH with I30T
VL: B1 VL
notes: 1F5 HC-2/1F5 LC1-2
B7: hu58 (antibody, V domains shown)
VH: B4 VH with I30T, R44G, S84R, E89D
VL: B1 VL
notes: 1F5 HC-3/1F5 LC1-2
B8: hu154 (antibody, V domains shown)
VH: B4 VH with A24T, I30T, F32Y, Y52S, D57G, V58T, V59A, N63K, T65K, N66F
VL: B4 VL
notes: 3E5 HC-1/3E5 LC-1
B9: hu89 (antibody, V domains shown)
VH: B4 VH with G56A, N63D
VL: B4 VL
notes: 1F5 HC-5/3E5 LC-1
B10: hu63 (antibody, V domains shown)
VH: B4 VH with I30T, R44G, S84R, E89D
VL: B4 VL
notes: 1F5 HC-3/3E5 LC-1
B11: hu87 (antibody, V domains shown)
VH: B4 VH with G56A, N63D
VL: DIVLTQSPDSLAVSLGERATINCQASQNIDGNTYMNWYQQKPGQPPKVLIYSIFNLESGVPDRFSGSGSGTDFTLTISSLQAEDVAVYYCQQSNDYPYTFGQGTKLEIK
notes: 1F5 HC-5/2B8 LC2-1
B12: hu32 (antibody, V domains shown)
VH: B4 VH
VL: B1 VL
notes: 1F5 HC-1/1F5 LC1-2
B13: hu84 (antibody, V domains shown)
VH: B4 VH with G56A, N63D
VL: B1 VL
notes: 1F5 HC-5/1F5 LC1-2
B14: hu167 (antibody, V domains shown)
VH: B4 VH with I30T, F32Y, Y52S, D57G, V58T, V59A, N63K, T65K, N66F
VL: B4 VL
notes: 3E5 HC-2/3E5 LC-1
B15: hu100 (antibody, V domains shown)
VH: B4 VH with I30T, F32Y, I51V, D57G, V58S, V59A, N63K, T65K, N66S
VL: B11 VL
notes: 2A2 HC-1/2B8 LC2-1
B16: hu193 (antibody, V domains shown)
VH: B2 VH with A24T, G44R, N50Y, Y52S, V59A, N65K, N66F, R85S, D89E
VL: B4 VL
notes: 3E5 HC-4/3E5 LC-1
B17: hu50 (antibody, V domains shown)
VH: B4 VH with I30T
VL: B4 VL
notes: 1F5 HC-2/3E5 LC-1
B18: hu129 (antibody, V domains shown)
VH: B2 VH with A56G, S84R, R85S
VL: B4 VL with D32G, T35S, L37M, I55V, V98A
notes: 2B8 HC1-2/3H10 LC2-1
B19: hu64 (antibody, V domains shown)
VH: B4 VH with I30T, R44G, S84R, E89D
VL: B4 VL with D32G, T35S, L37M, I55V, V98A
notes: 1F5 HC-3/3H10 LC2-1
B20: hu128 (antibody, V domains shown)
VH: B2 VH with A56G, S84R, R85S
VL: B4 VL
notes: 2B8 HC1-2/3E5 LC-1
B21: hu185 (antibody, V domains shown)
VH: B2 VH with A24T, G44R, N50Y, Y52S, V59A, N65K, N66F, R85S, D89E
VL: B1 VL with F31Y, M37L, H42Q, H96N, V98F
notes: 3E5 HC-4/1A2 LC2-3
B22: hu195 (antibody, V domains shown)
VH: B2 VH with A24T, G44R, N50Y, Y52S, V59A, N65K, N66F, R85S, D89E
VL: DIQLTQSPSSLSASVGDRVTITCKASQNIDYGGYSYMNWYQQKPGKAPKVLIYSVFNLESGVPSRFSGSGSGTDFTLTISSLQPEDFATYYCQQSNEAPYTFGQGTKLEIK
notes: 3E5 HC-4/3H10 LC2-2
B23: hu189 (antibody, V domains shown)
VH: B2 VH with A24T, G44R, N50Y, Y52S, V59A, N65K, N66F, R85S, D89E
VL: B2 VL with Y31F, L37M, N85D, N96H, F98V
notes: 3E5 HC-4/1F5 LC1-3
B24: hu182 (antibody, V domains shown)
VH: B2 VH with N50Y, Y52S, A56G, V59A, N65K, N66F, A92V
VL: B22 VL
notes: 3E5 HC-3/3H10 LC2-2
B25: hu169 (antibody, V domains shown)
VH: B4 VH with I30T, F32Y, Y52S, D57G, V58T, V59A, N63K, T65K, N66F
VL: B22 VL
notes: 3E5 HC-2/3H10 LC2-2
B26: hu181 (antibody, V domains shown)
VH: B2 VH with N50Y, Y52S, A56G, V59A, N65K, N66F, A92V
VL: B4 VL with D32G, T35S, L37M, I55V, V98A
notes: 3E5 HC-3/3H10 LC2-1
B27: hu177 (antibody, V domains shown)
VH: B2 VH with N50Y, Y52S, A56G, V59A, N65K, N66F, A92V
VL: B4 VL with Y31F, T35A, L37M, Q42H, I55V, N96H
notes: 3E5 HC-3/1F5 LC1-4
B28: hu190 (antibody, V domains shown)
VH: B2 VH with A24T, G44R, N50Y, Y52S, V59A, N65K, N66F, R85S, D89E
VL: B4 VL with Y31F, T35A, L37M, Q42H, I55V, N96H
notes: 3E5 HC-4/1F5 LC1-4
B29: hu194 (antibody, V domains shown)
VH: B2 VH with A24T, G44R, N50Y, Y52S, V59A, N65K, N66F, R85S, D89E
VL: B4 VL with D32G, T35S, L37M, I55V, V98A
notes: 3E5 HC-4/3H10 LC2-1

What follows are binders tested against CGRP antigen (assay: cell-based or functional assay).

Binder | IC50 [µg/mL] | relative activity (%) vs Ref(TEVA) [%]
B1 | 0.0404 | 77
B2 | 0.0425 | 80
B3 | 0.0978 | 35
B4 | 0.0784 | 46
B5 | 0.058 | 53
B6 | 0.108 | 33
B7 | 0.0619 | 50
B8 | 0.0905 | 36
B9 | 0.0979 | 48
B10 | 0.05 | 62
B11 | 0.124 | 38
B12 | 0.137 | 26
B13 | 0.256 | 19
B14 | 0.125 | 26
B15 | 0.11 | 28
B16 | 0.0775 | 42
B17 | 0.0668 | 46
B18 | 0.088 | 39
B19 | 0.0699 | 44
B20 | 0.109 | 28

Target: T1, Biotin-huCGRPaSA
Test: ELISA, supernatant; relative to chimeric C245
Outline: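 Plates coated with biotin-CGRPaSA at 1.0 μg/mL (90 min, 37°C) and blocked with 2% BSA. Humanized antibodies and chimeric C245 reference, 2.5-fold serial dilutions from 1000 ng/mL, bound 60 min at 37°C. Detection by HRP anti-human IgG (Fc), TMB 15 min, read at 450/620 nm.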

Binder | Relative binding activity, % [%]
B1 | 120
B21 | 19
B2 | 107
B22 | 23
B23 | 73
B24 | 31
B3 | 119
B4 | 142
B25 | 16
B5 | 102
B26 | 67
B27 | 25
B28 | 34
B29 | 98
B6 | 119
B7 | 113
B8 | 121
B9 | 112
B10 | 122
B11 | 138
B12 | 116
B13 | 111
B14 | 101
B15 | 133
B16 | 100
B17 | 132
B18 | 117
B19 | 116
B20 | 117
